Assay results published in publication PMC9141747.

Columns and labels:
[1] = biological target: T1, H-NS (Escherichia coli K1 (RS218?)) (UniProt P0ACF8); assay: EMSA; conditions: 10 mM Tris pH 7.5, 1 mM EDTA, 100 mM KCl, 0.1 mM DTT, 5% glycerol, 0.01 mg/mL BSA
T1 sequence: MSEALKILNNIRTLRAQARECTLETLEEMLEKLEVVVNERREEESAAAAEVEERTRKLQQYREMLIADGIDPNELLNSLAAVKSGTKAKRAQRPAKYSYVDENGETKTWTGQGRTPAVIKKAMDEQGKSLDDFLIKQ

[2] = tested on: T2, YbdO (Escherichia coli K1 (RS218?)), ORF:f8d494c4; assay: EMSA; conditions: 10 mM Tris pH 7.5, 1 mM EDTA, 100 mM KCl, 0.1 mM DTT, 5% glycerol, 0.01 mg/mL BSA; […]
T2 sequence: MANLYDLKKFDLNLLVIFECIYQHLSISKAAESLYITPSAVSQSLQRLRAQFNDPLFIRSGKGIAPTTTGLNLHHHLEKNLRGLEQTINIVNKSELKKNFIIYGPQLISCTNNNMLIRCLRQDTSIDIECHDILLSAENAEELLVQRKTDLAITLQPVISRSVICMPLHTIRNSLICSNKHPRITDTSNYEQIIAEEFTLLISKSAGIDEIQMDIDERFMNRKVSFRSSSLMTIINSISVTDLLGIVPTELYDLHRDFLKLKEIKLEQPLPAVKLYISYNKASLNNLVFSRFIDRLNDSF

For “ACATACTCCGTTGTATTGTCTCTTCCATAAATCATTCACTTGATCAATAATGTTGTTGTATTTATATGTATTATGTTTTTCTGCTTAACTTTGGATTAAGATTTTCTAAAATAGCATAGCTGTCAGGTGGGTTACGAGCAATTCATGCGTTTTTAGGATGGTTGAAAAGCAGAGAGAGATTTCAACCATCGATGAATTATATTCTATTTATTCCCCATAATGATATTAAGTGTTTTCTGATCGGGTAATCCGACGGCTTGTTGCAGGGTA (double strand) [PybdO]”, the binding ([1]; […]) was “binds”.

“GCGGCCCCAGGCCGAGCCAGTTTACCCGCTCTGAGACCTGCGCCAGCTGGCAGGTCAGGCCAATCCGCGCCGGATGCGGTGTATCGCTTGCCACCGCAACATCCACATTGATGACCATCTCACCGTGCCCATCAATCCGGTAGG (double strand) [lacZ fragment]” was tested, and the binding ([1]; 20 ng DNA in 20 uL, 25 C, 30 min, native 8% PAGE in 0.5x TBE, GelRed stain) was “no binding” and the binding [2] was “no binding”.

With “TTTCCTGAGAAATTAACTCTGCATTCTAAAACGGCCAGTTTTCTGAAATTACCAGAAGACCGAATACATTCATGCCTGAAGAATGGATTAGAAGAAACGAGACGGAAATAGATCTATTTATCCCTGCGGAAATAATTTCTGCTGAAATTTTTTTGCGGCTATTAAAAAGGTCAAACCGTCTGAGTAAATTTTATCCAGTTACAAACAAGTATTACCTCCAGTGTATTGGTAGCTGTTAAGCCAAGGGCGGTAGCGTACCTGAAGAGATTAGGATCACATCATCAAATGG (double strand) [PkpsM]” the binding [2] was “binds”.
